Results as given in patent US20110159021A1 (Dana-Farber, published 2011).

Molecular target: T1, HLA-A2 molecules on the surface of human T2 cells (human)
T1 construct: MHC class I molecule that the peptides load onto; also called HLA-A2.1; HLA-A*0201
Test: T2 peptide-binding assay; HLA-A2 up-regulation on T2 cells, flow cytometry

Row | Binder | binding result
1 | LLREKTHGL (also called XBP1 #1 peptide) [XBP1 117-125 (LLREKTHGL)] | binds
2 | ILAVLTLQI (Native peptide of non-spliced XBP1, synthetic; also called XBP1 #3 peptide) [XBP1 189-197 (ILAVLTLQI)] | binds
3 | KLLLENQLL (Native peptide of non-spliced XBP1, synthetic; also called XBP1 #5 peptide) [XBP1 110-118 (KLLLENQLL)] | binds

Molecular target: T1, HLA-A2 molecules on the surface of …
Test: T2 peptide-binding assay; HLA-A2 up-regulation on T2 cells, 50 ug/mL peptide plus b2m, flow cytometry with PE anti-HLA-A2 mAb

Row | Binder | binding result
4 | SLFVLGLFL (Native peptide of CS1, synthetic) [CS1-P2: CS1 239-247 (SLFVLGLFL)] | binds
5 | LLVPLLLSL (Native peptide of CS1, synthetic) [CS1-P3: CS1 232-240 (LLVPLLLSL)] | binds
6 | TLIYILWQL (Native peptide of CS1, synthetic) [CS1-P4: CS1 9-17 (TLIYILWQL)] | binds
7 | LLLSLFVLGL [CS1-P1: CS1 236-245 (LLLSLFVLGL)] | binds

Molecular target: T1, HLA-A2 molecules on the surface of …
Test: peptide stability assay on T2 cells after Brefeldin A, flow cytometry with FITC anti-HLA-A2 mAb

Row | Binder | binding result
8 | YLFPQLISV (Heteroclitic variant of the spliced XBP1 367-375 peptide, synthetic; also called SP XBP1 #3M; XBP1 SP 3M) [heteroclitic spliced XBP1 367-375 (YLFPQLISV)] | binds

Molecular target: T1, HLA-A2 molecules on the surface of …
Test: T2 peptide-binding assay; HLA-A2 up-regulation on T2 cells, 50 ug/ml peptide plus b2m, flow cytometry with FITC anti-HLA-A2 mAb

Row | Binder | MFI (HLA-A2 mean fluorescence intensity) [MFI]
9 | NISPWILAV (Native peptide of non-spliced XBP1, synthetic; also called XBP1 #2 peptide; XBP1 #2p) [XBP1 184-192 (NISPWILAV)] | 720
10 | GILDNLDPV (also called SP XBP1 #1 peptide; SP XBP1 #1p) [SP XBP1 196-204 (GILDNLDPV)] | 762
11 | ELFPQLISV (Native peptide of spliced XBP1, synthetic; also called SP XBP1 #3 peptide; SP XBP1 #3p) [SP XBP1 367-375 (ELFPQLISV)] | 785
12 | GLVGLIFAV (Native peptide of CD138, synthetic; also called CD138 #2p; CD138 #2 peptide) [CD138 260-268 (GLVGLIFAV)] | 690
